Where no end group is shown, it is not given here. The star is where a group is joined. Biotin = O=C1N[C@H]2[C@H](CS[C@H]2CCCCC(=O)*)N1

One test has as its target tooth pellicle (thin film derived from salivary glycoproteins, formed in a human mouth) (human). As to the kind of experiment: ELISA titration of biotinylated peptide on pellicle-coated bovine enamel, streptavidin-alkaline phosphatase, 4-MUP fluorescence, Scatchard plot. A general note: An ELISA detects its analyte on a solid surface through an enzyme-linked reagent.
In turn, SSRPHKNENIMQYNVNDRWHITPAK(Biotin) [DenP32-A] registered an MB50 of 25 µM.

Consider SSRPTTYHYKNIYQESYQQRNPAVK(Biotin) [DenP3-A], for which the MB50 worked out at 28 µM.

For the next test the target is unchanged. The experiment in a line: ELISA, 20 uM biotinylated peptide on pellicle-coated bovine enamel, streptavidin-HRP, normalized to DenP03; no-peptide control -0.001.
As for SSRPVNPNWVETQALHQPPGNTK(Biotin) [DenP20-A], the O.D.450 (normalized) is 0.59. SSRPHKNENIMQYNVNDRWHITPAK(Biotin) [DenP32-A]: the O.D.450 (normalized) was 1.14. Same read-out and setting: for SSRPQVPDYLSPTHQKKAFLEIPTK(Biotin) [DenP29-A] the value was 0.468. Same read-out and setting: for SSRPTYQGVPSWPAVIDDAIRRK(Biotin) [DenP19-A] the value was 0.712; for SSRPAPPTYQTASYPHNLPSKRKMK(Biotin) [DenP28-A], 0.811; for SSRPHDPNHLTHQARTIYRNANHTK(Biotin) [DenP23-A], 0.85. As for SSRPIYPNESMSTSNVRGPYHPK(Biotin) [DenP22-A], the O.D.450 (normalized) came out at 0.354. SSRPTTYHYKNIYQESYQQRNPAVK(Biotin) [DenP3-A] yielded an O.D.450 (normalized) of 1.

For another test the target is unchanged. As to the kind of experiment: phage ELISA on pellicle-coated bovine enamel, anti-M13-HRP, normalized to internal control.
In the case of TTYHYKNIYQESYQQRNPAV [DenP3], the O.D.450 (normalized) was 2.5.

Another test shares this target. The experiment in a line: phage ELISA on 30 min pellicle-coated bovine enamel, anti-M13-HRP, normalized to DenP3; no-phage control 0.094.
GGMGALESYRQWNHLA [DenP113] registered an O.D.450 (normalized) of 1.35. Same read-out and setting: for GYGQYVSQQTWAHSNK [DenP115] the value was 0.501; for GINKGQRPPWESWHEN [DenP114], 0.703; for SFSWHRGDWELGHQSKTMGM [DenP106], 1.52. In turn, GYQPHYVDHTIGWQPMIRPN [DenP104] had an O.D.450 (normalized) of 0.79.

Consider HDHLSWWGQFDRQNLL [DenP116], for which the O.D.450 (normalized) turned out to be 1.05. Same read-out and setting: for SMWHDITKRYRNPSEMVSAY [DenP107] the value was 0.726; for DGYKLQTSLDWQMWNP [DenP111], 1.05. The molecule NQQMKLVPQHWHRAQP [DenP119] gave an O.D.450 (normalized) of 1.05. THGNKHQSWTYPSEINHKNY [DenP108] displayed an O.D.450 (normalized) of 1.15. The same measure, in the same setting: for FPSKWYNHHRHITGHV [DenP112] the value was 0.413. Same read-out and setting: for MPGHQESIKVQNWNRV [DenP117] the value was 0.433; for EFYPFAEVPPEKSGIGRQVF [DenP102], 0.52. The same measure, in the same setting: for QFNQTSHSFMHGTSGYVPGK [DenP105] the value was 0.47; for WHEPHQFSGENTDYSSSMGT [DenP109], 0.716. As for AIEYQHSATTPWTMRTRLPP [DenP101], the O.D.450 (normalized) worked out at 0.467. The same measure, in the same setting: for NLHSPWPSHAAHHWST [DenP118] the value was 0.641; for TTYHYKNIYQESYQQRNPAV [DenP3], 1. On the same count and under the same terms, for GVHQYSRPTVPSYLWTSGQH [DenP103] the value was 0.879.
